From patent US10660972B2, “Methods for coupling targeting peptides onto recombinant lysosomal enzymes for improved treatments of lysosomal storage diseases” (AMICUS THERAPEUTICS, INC., priority 2011, dated 2020)
“And” between values parts separate entries of the source, which are not always exact repeats. Identical values can stand only once.

How the values were obtained:
IGF-2/CI-MPR = IGF-2/CI-MPR (Homo sapiens, UniProt P11717); settings: cited from earlier work; for Kd: ligand affinity for IGF-2/CI-MPR, read-out: Binding Affinity (Apparent Kd; nM)
Pompe disease = settings: 40 mg/kg every other week; cited from earlier work
insulin receptor = insulin receptor (Homo sapiens, UniProt P06213); settings: compared to the IGF-2/CI-MPR; cited from earlier work
[1] = human, in vivo; cited from earlier work
IGF-1 receptor = IGF-1 receptor (Homo sapiens, UniProt P08069); settings: compared to the IGF-2/CI-MPR; cited from earlier work
[2] = tested on: serum IGF binding proteins (IGFBPs); test: Binding to serum IGF binding proteins, inferred from uptake in serum-containing medium; type: cell-based; settings: inferred from internalization in medium with 10% FBS
Method: To assess the functional effects of IGF2 peptide for the cellular uptake of exogenous lysosomal enzymes, the internalization of IGF2-conjugated rbGAA (vIGF2-rhGAA) was evaluated in L6 rat skeletal muscle myoblasts. Briefly, L6 myoblasts were expanded in T-75 flasks to confluence in DMEM medium containing 10% fetal bovine serum (FBS) at 37 C and a 5% CO2 environment. The cells were harvested via trypsin/EDTA and plated in 6-well tissue culture plates at a cell density of 3×10^5 cells per well and incubated in DMEM/10% […] medium. Two hours prior to the addition of lysosomal enzymes, the spent DMEM 10% FBS medium was replaced with 2.5 ml uptake medium (Ham's F-12/10% FBS/2 mM PIPES, pH 6.7). Unconjugated rhGAA and vIGF2-rhGAA were diluted to 0.5 mg/ml with 50 mM sodium phosphate, pH 6.5/100 mM NaCl/0.05%>Polysorbate-80 and sterilized through a 0.2 μm filter spin device (Costar). Unconjugated rhGAA was added to individual wells at final protein concentrations of 10-200 nM while vIGF2-rhGAA was added at 2-25 nM. To ensure that all wells had the same volume and correct protein concentration, 50 mM sodium phosphate, pH 6.5/100 mM NaCl/0.05% Polysorbate-80 buffer was added so that the total volume of enzyme and buffer was 0.2 ml for each sample.

[3] = Solubility and stability of protein preparations in acidic buffer; type: physicochemical
Text: (§1) The high-mannose type N-glycans on rhGAA is problematic because it is believed that these carbohydrates cause the protein to be rapidly cleared from the circulation via macrophage and splenic mannose receptors. […] Deglycosylation of rhGAA can be performed after the enzyme is modified with S-Hynic and purified (via size exclusion chromatography or dialysis to remove excess crosslinker). This strategy allows for complete deglycosylation of rhGAA over 1-5 days using EndoF or EndoH without affecting enzyme activity. The deglycosylated hydrazide-modified rhGAA is then conjugated to PEG4-benzaldehyde-modified IGF-2 peptides. Alternatively, rhGAA deglycosylation can be performed concurrently during the conjugation of PEG4-benzaldehyde-modified IGF-2 peptide to hydrazide-modified rhGAA using high concentrations of EndoF or EndoH. Deglycosylated, IGF2 peptide-conjugated rhGAA is then purified by gel filtration chromatography or dialysis to remove excess […] IGF-2 peptides and stored in acidic pH buffer (50 mM sodium phosphate, pH 6.2/100 mM NaCl/0.05% Polysorbate-80). The ideal method to remove high-mannose N-glycans from yeast-derived rhGAA would be to co-express EndoH with the lysosomal enzyme for deglycoylation in vivo prior to protein purification of rhGAA. […]

[4] = tested on: lysosomal enzyme activity (rhGAA, I2S); test: Enzyme activity of lysosomal enzyme after conjugation or deglycosylation; type: biochemical, human
Text: as §1, with “Polysorbate-80).” for “Polysorbate-80). The ideal method to remove high-mannose N-glycans from yeast-derived rhGAA would be to co-express EndoH with the lysosomal enzyme for deglycoylation in vivo prior to protein purification of rhGAA.”
To assess the functional effects of IGF2 peptide for the cellular uptake of exogenous lysosomal enzymes, the internalization of IGF2-conjugated rbGAA (vIGF2-rhGAA) was evaluated in L6 rat skeletal muscle myoblasts. […]

Sequence of IGF-2/CI-MPR (P11717 41-2491): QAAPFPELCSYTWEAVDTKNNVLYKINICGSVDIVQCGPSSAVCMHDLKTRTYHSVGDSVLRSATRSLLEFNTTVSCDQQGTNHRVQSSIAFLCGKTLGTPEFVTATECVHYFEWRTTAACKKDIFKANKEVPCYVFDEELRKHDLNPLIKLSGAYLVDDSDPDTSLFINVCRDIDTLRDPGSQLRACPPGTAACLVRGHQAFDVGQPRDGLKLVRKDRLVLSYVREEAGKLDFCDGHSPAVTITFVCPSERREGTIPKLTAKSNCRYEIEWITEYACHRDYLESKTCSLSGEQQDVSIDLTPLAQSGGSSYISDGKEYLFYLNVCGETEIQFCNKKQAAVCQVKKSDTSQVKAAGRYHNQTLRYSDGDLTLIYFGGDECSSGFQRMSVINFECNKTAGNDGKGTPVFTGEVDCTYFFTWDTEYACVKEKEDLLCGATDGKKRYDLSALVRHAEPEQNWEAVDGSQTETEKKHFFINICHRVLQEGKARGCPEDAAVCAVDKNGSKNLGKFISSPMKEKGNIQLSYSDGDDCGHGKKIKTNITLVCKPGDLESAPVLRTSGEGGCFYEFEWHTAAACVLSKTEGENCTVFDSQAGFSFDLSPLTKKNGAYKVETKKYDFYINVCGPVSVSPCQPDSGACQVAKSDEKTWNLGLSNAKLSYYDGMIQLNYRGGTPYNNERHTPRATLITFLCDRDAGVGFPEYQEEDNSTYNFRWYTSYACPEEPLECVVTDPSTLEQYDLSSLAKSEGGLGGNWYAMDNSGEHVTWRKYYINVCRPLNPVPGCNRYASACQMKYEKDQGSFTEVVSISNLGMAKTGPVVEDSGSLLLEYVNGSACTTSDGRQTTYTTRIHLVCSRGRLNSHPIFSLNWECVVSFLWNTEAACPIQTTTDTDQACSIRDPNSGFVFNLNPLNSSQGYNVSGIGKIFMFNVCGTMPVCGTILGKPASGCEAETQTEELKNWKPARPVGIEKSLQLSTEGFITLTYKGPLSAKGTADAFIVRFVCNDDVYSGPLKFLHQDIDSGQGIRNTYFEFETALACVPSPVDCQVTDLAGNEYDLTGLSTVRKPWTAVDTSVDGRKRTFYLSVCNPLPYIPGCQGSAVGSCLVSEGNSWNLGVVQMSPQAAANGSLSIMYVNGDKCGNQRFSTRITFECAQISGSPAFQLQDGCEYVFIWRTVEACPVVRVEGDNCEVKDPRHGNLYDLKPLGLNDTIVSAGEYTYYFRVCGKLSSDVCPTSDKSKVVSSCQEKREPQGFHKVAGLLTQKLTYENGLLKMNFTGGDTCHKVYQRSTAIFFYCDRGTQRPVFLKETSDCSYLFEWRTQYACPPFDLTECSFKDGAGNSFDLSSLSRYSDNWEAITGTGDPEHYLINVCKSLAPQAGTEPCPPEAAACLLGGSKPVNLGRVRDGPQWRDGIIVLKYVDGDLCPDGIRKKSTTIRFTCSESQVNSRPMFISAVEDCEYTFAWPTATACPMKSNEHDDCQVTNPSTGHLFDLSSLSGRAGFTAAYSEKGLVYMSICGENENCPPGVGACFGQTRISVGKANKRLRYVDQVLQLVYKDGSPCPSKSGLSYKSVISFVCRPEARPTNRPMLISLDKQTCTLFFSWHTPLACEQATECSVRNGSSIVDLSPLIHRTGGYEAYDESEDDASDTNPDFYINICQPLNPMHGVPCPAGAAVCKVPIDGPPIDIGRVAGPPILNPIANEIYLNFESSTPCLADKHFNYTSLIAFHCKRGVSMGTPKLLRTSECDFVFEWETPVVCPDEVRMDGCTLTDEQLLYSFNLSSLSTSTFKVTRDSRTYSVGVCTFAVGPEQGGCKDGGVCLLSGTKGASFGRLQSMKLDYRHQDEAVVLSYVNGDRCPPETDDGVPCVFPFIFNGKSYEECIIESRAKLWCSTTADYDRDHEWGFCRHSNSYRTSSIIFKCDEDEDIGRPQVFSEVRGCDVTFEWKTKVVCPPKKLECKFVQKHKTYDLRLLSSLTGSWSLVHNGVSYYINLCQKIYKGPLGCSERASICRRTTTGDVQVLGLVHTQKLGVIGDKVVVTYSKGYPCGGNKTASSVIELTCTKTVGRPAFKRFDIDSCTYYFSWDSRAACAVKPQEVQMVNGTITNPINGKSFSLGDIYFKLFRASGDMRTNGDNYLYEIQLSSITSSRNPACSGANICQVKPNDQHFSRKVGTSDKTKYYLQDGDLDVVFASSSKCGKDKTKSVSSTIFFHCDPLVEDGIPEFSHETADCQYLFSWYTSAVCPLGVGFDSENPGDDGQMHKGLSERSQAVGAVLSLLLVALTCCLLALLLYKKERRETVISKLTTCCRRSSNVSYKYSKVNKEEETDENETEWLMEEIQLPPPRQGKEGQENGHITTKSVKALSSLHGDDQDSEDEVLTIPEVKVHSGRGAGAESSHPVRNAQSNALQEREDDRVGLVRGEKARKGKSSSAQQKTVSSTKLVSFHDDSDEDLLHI

O=C[C@@H](O)[C@@H](O)[C@H](O)[C@H](O)COP(=O)(O)O [free M6P, mannose 6-phosphate]
Kd (IGF-2/CI-MPR): 7000 nM

Myozyme: recombinant human acid α-glucosidase, rhGAA; Genzyme Corp.
clinical effectiveness in Pompe disease (Pompe disease): only moderately effective

WT hIGF-2: wildtype human insulin-like growth factor 2 peptide
fold lower affinity for insulin receptor compared to IGF-2/CI-MPR (insulin receptor): ~100 fold | Kd (IGF-2/CI-MPR): 0.03 to 0.2 nM | fold higher affinity for IGF-2/CI-MPR than mono-M6P N-glycan (IGF-2/CI-MPR; relative to mono-M6P N-glycan): approximately 230,000 fold | safety in clinical trials [1]: shown to be safe | fold lower affinity for IGF-1 receptor compared to IGF-2/CI-MPR (IGF-1 receptor): ~230 fold

[Leu27] hIGF-2: human IGF-2 with substitution of leucine for tyrosine at position 27
Kd (IGF-2/CI-MPR): 0.05 nM and 0.06 nM

[del(1-4), Arg6, Leu27, Arg65] IGF-2 [variant IGF2 peptide]
binding affinity to serum IGF binding proteins (IGFBPs) [2]: low binding affinity | stability of conjugated peptide in acidic buffers ([3]; acidic buffers required for maintaining lysosomal enzyme activities): stable and maintains proper protein structure

rhGAA: Recombinant human acid α-glucosidase
effect of chemical conjugation of variant IGF2 peptide on enzyme activity ([4]; after conjugation of variant IGF2 peptide (data not shown)): did not affect enzyme activity | enzyme activity after removal of N-glycans ([4]; deglycosylated with EndoF or EndoH, native conditions (data not shown)): completely active | solubility after removal of N-glycans ([3]; deglycosylated with EndoF or EndoH (data not shown)): remain soluble
